Source: the FLAb antibody collection
Changes are numbered by the printed parent chain. Values joined by “and” are separate entries in the source; they are usually repeats but may differ in a detail not shown here. Equal entries are not always repeated.

B1: unnamed (protein)
chain 1: QVQLVQSGAEVKKPGASVKISCKASGYSFTAYYIHWVKQAPGQGLEWIGYISNYNRATNYNQKFKGRVTFTTDTSTSTAYMELRSLRSDDTAVYYCARDYDYDVGMDYWGQGTLVTVSS
chain 2: DIVMTQSPDSLAVSLGERATISCRASESVDNYGISFMKWFQQKPGQPPKLLIYAASNQGSGVPDRFSGSGSGTDFTLTISSLQAEDVAVYYCQQSKEVPWTFGGGTKVEIK
B2: unnamed (protein)
chain 1: QVQLVQSGAEVKKPGASVKVSCKASGYTFTSHWMHWVRQAPGQGLEWIGEFNPSNGRTNYNEKFKSKATMTVDTSTNTAYMELSSLRSEDTAVYYCASRDYDYDGRYFDYWGQGTLVTVSS
chain 2: DIQMTQSPSSLSASVGDRVTITCSASSSVTYMYWYQQKPGKAPKLLIYDTSNLASGVPSRFSGSGSGTDYTFTISSLQPEDIATYYCQQWSSHIFTFGQGTKVEIK
B3: unnamed (protein)
chain 1: QVQLVQSGAEVKKPGASVKVSCKASGFNIKDTYIHWVRQAPGQRLEWMGRIDPANGYTKYDPKFQGRVTITADTSASTAYMELSSLRSEDTAVYYCAREGYYGNYGVYAMDYWGQGTLVTVSS
chain 2: DIQMTQSPSSLSASVGDRVTITCKTSQDINKYMAWYQQTPGKAPRLLIHYTSALQPGIPSRFSGSGSGRDYTFTISSLQPEDIATYYCLQYDNLWTFGQGTKVEIK
B4: unnamed (protein)
chain 1: QVQLQESGPGLVKPSETLSLTCTVSGFSLLSYGVHWVRQPPGKGLEWLGVIWTGGTTNYNSALMSRFTISKDDSKNTVYLKMNSLKTEDTAIYYCARYYYGMDYWGQGTLVTVSS
chain 2: DIQMTQSPSSLSASVGDRVTITCKASQDVRNTVAWYQQKPGKAPKLLIYSSSYRNTGVPDRFSGSGSGTDFTLTISSLQAEDVAVYYCQQHYITPYTFGGGTKVEIK
B5: unnamed (protein)
chain 1: QVTLRESGPALVKPTQTLTLTCTFSGFSLSTAGMSVGWIRQPPGKALEWLADIWWDDKKHYNPSLKDRLTISKDTSKNQVVLKVTNMDPADTATYYCARDMIFNFYFDVWGQGTTVTVSS
chain 2: DIQMTQSPSTLSASVGDRVTITCSASSRVGYMHWYQQKPGKAPKLLIYDTSKLASGVPSRFSGSGSGTEFTLTISSLQPDDFATYYCFQGSGYPFTFGGGTKVEIK
B6: unnamed (protein)
chain 1: EVQLVESGGGLVKPGGSLKLSCAASGYTFTSYVMHWVRQAPGKGLEWIGYINPYNDGTKYNEKFQGRVTISSDKSISTAYMELSSLRSEDTAMYYCARGTYYYGTRVFDYWGQGTLVTVSS
chain 2: DIVMTQSPATLSLSPGERATLSCRSSKSLQNVNGNTYLYWFQQKPGQSPQLLIYRMSNLNSGVPDRFSGSGSGTEFTLTISSLEPEDFAVYYCMQHLEYPITFGAGTKLEIK
B7: unnamed (protein)
chain 1: QVQLQESGPGLVKPSQTLSLTCTVSGGSISSGDYYWSWIRQPPGKGLEWIGYIYYSGSTDYNPSLKSRVTMSVDTSKNQFSLKVNSVTAADTAVYYCARVSIFGVGTFDYWGQGTLVTVSS
chain 2: EIVMTQSPATLSLSPGERATLSCRASQSVSSYLAWYQQKPGQAPRLLIYDASNRATGIPARFSGSGSGTDFTLTISSLEPEDFAVYYCHQYGSTPLTFGGGTKAEIK
B8: unnamed (protein)
chain 1: QVQLVESGGGVVQPGRSLRLDCKASGITFSNSGMHWVRQAPGKGLEWVAVIWYDGSKRYYADSVKGRFTISRDNSKNTLFLQMNSLRAEDTAVYYCATNDDYWGQGTLVTVSS
chain 2: B7 chain 2 with M4L, H89Q, Y91S, G92S, S93N, T94W, L96R, G100Q, A104V
B9: unnamed (protein)
chain 1: EVQLVESGGDLVQPGRSLRLSCAASGFIFSNYGMSWVRQAPGKGLEWVATISSASTYSYYPDSVKGRFTISRDNAKNSLYLQMNSLRVEDTALYYCGRHSDGNFAFGYWGQGTLVTVSS
chain 2: DVLMTQSPLSLPVTPGEPASISCRSSRNIVHINGDTYLEWYLQKPGQSPQLLIYKVSNRFSGVPDRFSGSGSGTDFTLKISRVEAEDVGVYYCFQGSLLPWTFGQGTKVEIK
B10: unnamed (protein)
chain 1: QVQLQQPGAELVEPGGSVKLSCKASGYTFTSHWMHWVKQRPGQGLEWIGEINPSSGRNNYNEKFKSKATLTVDKSSSTAYMQFSSLTSEDSAVYYCVRYYGYDEAMDYWGQGTSVTVSS
chain 2: DIVMTQAAFSNPVTLGTSASISCRSSKSLLHSNGITYLYWYLQKPGQSPQLLIYQMSNLASGVPDRFSSSGSGTDFTLRISRVEAEDVGVYYCAQNLELPYTFGGGTKLEIK
B11: unnamed (protein)
chain 1: QVQLVQSGGGLVQAGGSLRLSCAASGGTFATSPMGWLRQAPGKGTEFVAAISPSGGDRIYADSVKGRFTISRDNAGYFIYLQMNSLKPEDTAVYYCAVRRRFDGTSYYTGDYDSWGQGTLVTVSS
chain 2: EIVLTQSPGTLSLSPGERATLSCRASQSVSSSYLAWYQQKPGQAPRLLIYDASSRATGIPDRFSGSGSGTDFTLTISRLEPEDFAVYYCQQYSYSPVTFGQGTKVEIK
B12: unnamed (protein)
chain 1: QVQLVQSGAEVKKPGSSVMVSCQASGGLLEDYIINWVRQAPGQGPEWMGGIIPVLGTVHYGPKFQGRVTITADESTDTAYMELSSLRSEDTAMYYCATETALVVSETYLPHYFDNWGQGTLVTVSS
chain 2: DIQMTQSPSSLSAAVGDRVTITCQASQDIVNYLNWYQQKPGKAPKLLIYVASNLETGVPSRFSGSGSGTDFSLTISSLQPEDVATYYCQQYDNLPLTFGGGTKVEIK
B13: unnamed (protein)
chain 1: EVQLQQSGPDLVKPGASVKISCKASGYSFTGYYMHWVKQSPGKGLEWIGRINPNNGVTLYNQKFKDKATLTVDKSSTTAYMELRSLTSEDSAVYYCARSTMITNYVMDYWGQGTSVTVSS
chain 2: SIVMTQTPTSLLVSAGDRVTITCKASQSVSNDVAWYQQKPGQSPKLLISYTSSRYAGVPDRFSGSGYGTDFTLTISSVQAEDAAVYFCQQDYNSPPTFGGGTKLEIK
B14: unnamed (protein)
chain 1: QVTLRESGPALVKPTQTLTLTCTVSGFSLTSYSVHWVRQPPGKGLEWLGVIWASGGTDYNSALMSRLSISKDTSRNQVVLTMTNMDPVDTATYYCARDPPSSLLRLDYWGRGTPVTVSS
chain 2: DIVMTQSPDSLAVSLGERATINCKSSQSLLNSGNQKNYLAWYQQKPGQPPKLLIYGASTRESGVPDRFSGSGSGTDFTLTISSLQAEDVAVYYCQNVHSFPFTFGGGTKLEIK
B15: unnamed (protein)
chain 1: QVQLVQSGAEVKKPGASVKVSCKAFGYPFTDYLLHWVRQAPGQGLEWVGWLNPYSGDTNYAQKFQGRVTMTRDTSISTAYMELSRLRSDDTAVYYCTRTTLISVYFDYWGQGTMVTVSS
chain 2: DIQMTQSPSSVSASVGDRVTIACRASQNIRNILNWYQQRPGKAPQLLIYAASNLQSGVPSRFSGSGSGTDFTLTINSLQPEDFATYYCQQSYSMPRTFGGGTKLEIK
B16: unnamed (protein)
chain 1: QVQLVQSGAEVKKPGASVKVSCKVSGYTLTELSIHWVRQAPGKGLEWMGGFDPEENEIVYAQRFQGRVTMTEDTSTDTAYMELSSLRSEDTAVYYCAIVGSFSPLTLGLWGQGTMVTVSS
chain 2: QSVLTQPPSVSGAPGQRVTISCTGSGSNIGAPYDVSWYQQLPGTAPKLLIYHNNKRPSGVPDRFSGSKSGTSASLAITGLQAEDEADYYCATVEAGLSGSVFGGGTKLTVL
B17: unnamed (protein)
chain 1: QVQLQQSGPELKKPGASVKVSCKDSGYAFSSSWMNWVRQAPGQGLEWIGRIYPGDGDTNYNGKFQGRVTITADKSSSTAYMELSSLRSEDTAVYFCARSGLLRYAMDYWGQGTLVTVSS
chain 2: DIQMTQSPSSLSASVGDRVTITCRASQDIRNYLNWYQQKPGKAVKLLIYYTSRLLPGVPSRFSGSGSGTDYSLTISSQEQEDIGTYFCQQGNTLPWTFGQGTKVEIR
B18: unnamed (protein)
chain 1: EVQLVQSGAEVKKPGESLKISCKGSGYIFTNYWIAWVRQMPGKGLESMGIIYPGDSDIRYSPSFQGQVTISADKSITTAYLQWSSLKASDTAMYYCARHDIEGFDYWGRGTLVTVSS
chain 2: EIVLTQSPGTLSLSPGERATLSCRASQSVSSSFFAWYQQKPGQAPRLLIYGASSRATGIPDRLSGSGSGTDFTLTITRLEPEDFAVYYCQQYDSSAITFGQGTRLEIK
B19: unnamed (protein)
chain 1: EVQLVESGGGLVKPGGSLKLSCAASGFAFSIYDMSWVRQTPEKCLEWVAYISSGGGTTYYPDTVKGRFTISRDNAKNTLYLQMSSLKSEDTAMYYCARHSGYGTHWGVLFAYWGQGTLVTVSA
chain 2: DIQMTQTTSSLSASLGDRVTISCRASQDISNYLNWYQQKPDGTVKLLIYYTSILHSGVPSRFSGSGSGTDYSLTISNLEQEDFATYFCQQGNTLPWTFGCGTKLEI

Experiment: patients with anti-drug antibodies; higher = more immunogenic

Row | Protein | patients with anti-drug antibodies
1 | B1 | 29%
2 | B2 | 10%
3 | B3 | 9%
4 | B4 | 21.2%
5 | B5 | 1.5%
6 | B6 | 17.5% and 1%
7 | B7 | 4.1%
8 | B8 | 7.7%
9 | B9 | 4.2%
10 | B10 | 0%
11 | B11 | 0%
12 | B12 | 28%
13 | B13 | 72.5%
14 | B14 | 13%
15 | B15 | 0.9%
16 | B16 | 3.1%
17 | B17 | 2.5%
18 | B18 | 3.3%
19 | B19 | 59%
